This is an account of results in patent US20240294646A1.

The target in assay [1] is Soluble FcγRIIb extracellular domain with C-terminal 10×His tag (UniProt P31994). In words: SPR (Biacore 4000), antibody captured on immobilised HER2, receptor as analyte.
Assay [2] deals with Soluble FcγRIIaR extracellular domain with C-terminal 10×His tag (UniProt P12318). The assay is described as above.
Assay [3] has as its target Soluble FcγRIIb extracellular domain with C-terminal 10×His tag (UniProt P31994). Description: SPR; IIb-Fold / IIaR-Fold (FcγRIIb against FcγRIIaR).
For assay [4] the target is unchanged. Description: SPR; KD of WT v16463 / KD of variant.
For assay [5], the target named is Soluble FcγRIIaR extracellular domain with C-terminal 10×His tag (UniProt P12318). Description: SPR; KD of WT v16463 / KD of variant.
Assay [6] has as its target Soluble FcγRIIb extracellular domain with C-terminal 10×His tag (UniProt P31994). Description: SPR (Protocol 2); ratio of FcγRIIb fold to FcγRIIaR fold over wild-type.
Assay [7] has the same target. Description: SPR (Protocol 2): full-size antibody captured on immobilised HER2, soluble receptor as analyte; fold over wild-type.
Assay [8] concerns the target Soluble FcγRIIaR extracellular domain with C-terminal 10×His tag (UniProt P12318). The assay is described as above.
The target in assay [9] is FcγRIIb, soluble extracellular domain (UniProt P31994). Description: SPR; IIb-Fold/IIaR-Fold (FcγRIIb against FcγRIIaR), vs. wild-type v16463.
Assay [10] deals with FcγRIIaR, soluble extracellular domain (UniProt P12318). Description: SPR (General Methods Protocol 2): one-armed antibody captured on immobilised HER2, soluble receptor as analyte.
In assay [11] the target is FcγRIIb, soluble extracellular domain (UniProt P31994). The assay is described as above.
Assay [12] concerns the target FcγRIIaR, soluble extracellular domain (UniProt P12318). In words: SPR; fold change in affinity over wild-type v16463.
In assay [13] the target is FcγRIIb, soluble extracellular domain (UniProt P31994). Description: SPR; fold change in affinity over wild-type v16463.
Assay [14] deals with Biotinylated FcγRIIb extracellular domain-Fc fusion (human IgG1 Fc with L234A_L235A_D265S) (human) (UniProt P31994). Description: competition electrochemiluminescence (MSD), antibody on coated HER2, biotinylated FcγRIIb-Fc with FcγRIIaR-Fc as competitor.
Assay [15] addresses Soluble FcγRIIaR extracellular domain with C-terminal 10xHis tag (UniProt P12318). Description: SPR (Biacore 4000), antibody captured on immobilised HER2, receptor as analyte.
Assay [16] has as its target Soluble FcγRIIb extracellular domain with C-terminal 10xHis tag (UniProt P31994). Described as above.
The target is the same in assay [17]. In words: SPR; IIb-Fold/IIaR-Fold (FcγRIIb against FcγRIIaR).
For assay [18], the target named is Soluble FcγRIIaR extracellular domain with C-terminal 10xHis tag (UniProt P12318). Description: SPR; fold change in affinity over wild-type v16463.
Assay [19] addresses Soluble FcγRIIb extracellular domain with C-terminal 10xHis tag (UniProt P31994). Description: SPR; fold change in affinity over wild-type v16463.
The target of assay [20] is Soluble FcγRIIb extracellular domain with C-terminal 10×His tag (UniProt P31994). Description: SPR, antibody captured on HER2 chip, receptor as analyte.
Assay [21] concerns the target Soluble FcγRIIaR extracellular domain with C-terminal 10×His tag (UniProt P12318). The description is as above.
Assay [22] concerns the target Soluble FcγRIIb extracellular domain with C-terminal 10×His tag (UniProt P31994). Description: SPR; ratio of IIb-Fold to IIaR-Fold (FcγRIIb against FcγRIIaR).
For assay [23] the target is unchanged. In words: SPR; KD ratio against wild-type v16463.
The target of assay [24] is Soluble FcγRIIaR extracellular domain with C-terminal 10×His tag (UniProt P12318). Description: SPR; KD ratio against wild-type v16463.
The target of assay [25] is Biotinylated FcγRIIb extracellular domain-Fc fusion (human IgG1 Fc with L234A_L235A_D265S) (human) (UniProt P31994). Description: competition electrochemiluminescence assay; antibody on HER2, biotinylated FcγRIIb-Fc, competitor FcγRIIaR-Fc.
Assay [26] deals with Biotinylated FcγRIIb extracellular domain-Fc fusion (human IgG1 Fc L234A_L235A_D265S) (human) (UniProt P31994). Description: competition electrochemiluminescence (MSD), antibody on HER2-coated plate, biotinylated FcγRIIb-Fc; competitor FcγRIIaR-Fc.
Assay [27] concerns the target Soluble FcγRIIb extracellular domain with C-terminal 10xHis tag (UniProt P31994). Description: SPR; ratio of the fold for FcγRIIb to the fold for FcγRIIaR.
Assay [28] concerns the target Soluble FcγRIIaR extracellular domain with C-terminal 10xHis tag (UniProt P12318). In words: SPR, antibody captured on HER2, receptor as analyte.
Assay [29] has as its target Soluble FcγRIIb extracellular domain with C-terminal 10xHis tag (UniProt P31994). Described as above.

For the substance “Variant 16463, wild-type one-armed trastuzumab antibody with heterodimeric IgG1 Fc”, the Kd in assay [1] is 1400 nM; in assay [2] it was 310 nM. This substance also had an IIb Selectivity in assay [3] of 1 fold. The same substance yielded an IIb-Fold in assay [4] of 1 fold. The IIaR-fold in [5] was 1 fold.
For the substance “Variant 22128, full-size antibody (FSA) format of v19585 (trastuzumab, heterodimeric IgG1 Fc; A: L234F_G236N_H268Q_K274Q_A327G_A330K_P331S / B: L234F_G236D_S239D_V266L_S267A_H268D_K274Q_A327G_A330S_P331S)”, the IIb/IIaR Selectivity (IIb-Fold/IIaR-Fold) in [6] amounted to 11.3. In addition, in assay [7], the IIb-fold (fold change in affinity over wild-type) came to 37.4 fold. Besides, the IIaR-fold (fold change in affinity over wild-type) in [8] was 3.3 fold.
In turn, “Variant 16463, wild-type one-armed trastuzumab antibody (OAA) with heterodimeric IgG1 Fc” gave an IIb/IIaR Selectivity vs. WT in assay [9] of 1 fold. The Kd is 310 nM in assay [10] and 1400 nM in assay [11]. In addition, the IIaR-Fold vs. WT in [12] stood at 1 fold. In [13], this substance registered an IIb-Fold vs. WT of 1 fold.
“v12, symmetrical E233D_G237D_P238D_H268D_P271G_A330R (IIb-specific comparator) (antibody)”: the ELISA (% of non-competed FcγRIIb signal in presence of 10x FcγRIIa) in assay [14] came to 100%. Besides, the figures for the Kd in [15] and in assay [16] were 220 nM and 13 nM, respectively. The IIb Selectivity in assay [17] stood at 80.5 fold. The IIaR-fold in assay [18] is 1.4 fold. This substance displayed an IIb-Fold in [19] of 112 fold.
With “Variant 22127, full-size antibody (FSA) format of v19540 (trastuzumab, heterodimeric IgG1 Fc; A: L234D_G236N_S267A / B: G236D_S239D_V266L_S267A_H268D)”, the IIb/IIaR Selectivity (IIb-Fold/IIaR-Fold) in assay [6] turned out to be 15.2. In addition, in assay [7], the IIb-fold (fold change in affinity over wild-type) was 23.9 fold. Moreover, the IIaR-fold (fold change in affinity over wild-type) in assay [8] was determined as 1.6 fold.
Take “v12, IIb-specific comparator with symmetrical E233D_G237D_P238D_H268D_P271G_A330R (Mimoto et al. 2013), trastuzumab antibody”: the values for the Kd in assay [20] and in assay [21] were 13 nM and 220 nM, respectively. The IIb Selectivity (IIb-Fold/IIaR-Fold) in assay [22] is 80.5 fold. In addition, the IIb-Fold in assay [23] stood at 112 fold. The IIaR-fold in assay [24] is 1.4 fold. Besides, the ELISA (% of non-competed FcγRIIb signal in presence of 10x FcγRIIa) in [25] was found to be 100%.
Consider “Variant 27293 (strat1_control; Launching Module 1: A_G236N_G237A B_G236D_G237F_S239D_S267V_H268D_Template_1) (antibody)”, for which, in assay [26], the ELISA (% of non-competed FcγRIIb signal in presence of 10x FcγRIIa) amounted to 70.8%. Also, in assay [27], the IIb Selectivity (IIb-Fold/IIaR-Fold) turned out to be 11.8 and the IIb Selectivity Fold wrt Control (v27293) was 1 fold. Also, in assay [28], the IIaR-Fold (affinity fold over WT v16463) worked out at 35.2 fold, the IIaR-Fold wrt Control (v27293) is 1 fold and the equilibrium dissociation constant (Kd) is 8.8 nM. In [29], this substance had an IIb-Fold (affinity fold over WT v16463) of 415 fold, an IIb-Fold wrt Control (v27293) of 1 fold and a Kd of 3.5 nM.
